{"source": "patent US20250189530A1", "about": "(STCUBE, published 2025)", "binders": {"B1": {"name": "STC43H11-1 (antibody, V domains shown)", "VH": "QSLEESGGRLVTPGGSLTLTCTVSGIDLSSYAMGWVRQAPGEGLEWIGSIGTGGGTGYASWAKGRFTISKTSTTVDLKMTSLTASDTATYFCATSNLWGPGTLVTVSS", "VL": "QVLTQTASPVSAAVGGTVTINCQASQSVYNNNRCSWFQQKPGQPPKRLIYHTSTLDSGVPSRFKGSGSGTQFTLTISDVQCDDAATYYCLGNYDCSRADCAAFGGGTEVVVK", "notes": "From immunized New Zealand rabbits; IgG heavy chain and Kappa light chain; also called clone #43H11; Clone 43H11"}}, "key": {"BTN1A1 Peptide 4 [1]": {"biological_target": "T1, BTN1A1 Peptide 4 (human)", "T1 construct": "also called BTN1A1-pep4- WT; Pep4", "T1 peptide": "EVEVGDRTDWAIGVC", "assay": "ELISA clone screen, STCube"}, "hBTN1A1 ICD [2]": {"biological_target": "T2, hBTN1A1 ICD (human, UniProt Q13410 270-526)", "T2 sequence": "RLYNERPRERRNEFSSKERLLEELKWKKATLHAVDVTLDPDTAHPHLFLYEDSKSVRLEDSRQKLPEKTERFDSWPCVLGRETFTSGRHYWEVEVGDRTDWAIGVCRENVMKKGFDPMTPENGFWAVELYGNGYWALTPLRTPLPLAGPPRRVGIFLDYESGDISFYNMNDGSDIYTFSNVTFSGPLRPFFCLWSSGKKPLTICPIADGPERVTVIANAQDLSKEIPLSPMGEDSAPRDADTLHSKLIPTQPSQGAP", "assay": "ELISA clone screen, STCube"}, "denatured hBTN1A1 ICD [3]": {"biological_target": "T3, denatured hBTN1A1 ICD (human, UniProt Q13410 270-526)", "T3 construct": "Same protein as hBTN1A1 ICD, denatured before the ELISA; also called hBTN1A1 ICD denatured; Denatured ICD", "T3 sequence": "T2 sequence", "assay": "ELISA clone screen, STCube"}, "[4]": {"biological_target": "T4, BTN1A1 peptide 4 Mutant 8 (T368A) (human)", "T4 construct": "The entry already carries the mutation; also called BTN1A1-pep4- Mutant 8", "T4 peptide": "EVEVGDRADWAIGVC", "assay": "KD against BTN1A1-pep4- WT"}, "[5]": {"biological_target": "T5, BTN1A1 peptide 4 Mutant 9 (D369A) (human)", "T5 construct": "The entry already carries the mutation; also called BTN1A1-pep4- Mutant 9", "T5 peptide": "EVEVGDRTAWAIGVC", "assay": "KD against BTN1A1-pep4- WT"}, "[6]": {"biological_target": "T6, BTN1A1 peptide 4 Mutant 10 (W370A) (human)", "T6 construct": "The entry already carries the mutation; also called BTN1A1-pep4- Mutant 10; mutant peptide #10", "T6 peptide": "EVEVGDRTDAAIGVC", "assay": "KD against BTN1A1-pep4- WT"}, "[7]": {"biological_target": "T7, BTN1A1 peptide 4 Mutant 11 (A371G) (human)", "T7 construct": "The entry already carries the mutation; also called BTN1A1-pep4- Mutant 11", "T7 peptide": "EVEVGDRTDWGIGVC", "assay": "KD against BTN1A1-pep4- WT"}, "[8]": {"biological_target": "T8, BTN1A1 peptide 4 Mutant 12 (I372A) (human)", "T8 construct": "The entry already carries the mutation; also called Mutant 12 (1372A); BTN1A1-pep4- Mutant 12", "T8 peptide": "EVEVGDRTDWAAGVC", "assay": "KD against BTN1A1-pep4- WT"}, "TRIM11 peptide": {"biological_target": "T9, TRIM11 peptide", "T9 peptide": "EVEVGDRTSWALGVC", "assay": "KD against BTN1A1-pep4- WT"}, "BTN1A1 Peptide 4 [9]": {"biological_target": "T1, BTN1A1 Peptide 4", "assay": "KD against BTN1A1-pep4- WT"}, "[10]": {"biological_target": "T10, BTN1A1 peptide 4 Mutant 5 (G365A) (human)", "T10 construct": "The entry already carries the mutation; also called BTN1A1-pep4- Mutant 5", "T10 peptide": "EVEVADRTDWAIGVC", "assay": "KD against BTN1A1-pep4- WT"}, "[11]": {"biological_target": "T11, BTN1A1 peptide 4 Mutant 6 (D366A) (human)", "T11 construct": "The entry already carries the mutation; also called BTN1A1-pep4- Mutant 6; mutant peptide #6", "T11 peptide": "EVEVGARTDWAIGVC", "assay": "KD against BTN1A1-pep4- WT"}, "[12]": {"biological_target": "T12, BTN1A1 peptide 4 Mutant 7 (R367A) (human)", "T12 construct": "The entry already carries the mutation; also called BTN1A1-pep4- Mutant 7", "T12 peptide": "EVEVGDATDWAIGVC", "assay": "KD against BTN1A1-pep4- WT"}, "BTN1A1 Peptide 4 [13]": {"biological_target": "T1, BTN1A1 Peptide 4", "assay": "ELISA clone screen, GenScript"}, "hBTN1A1 ICD [14]": {"biological_target": "T2, hBTN1A1 ICD", "assay": "ELISA clone screen, GenScript"}, "denatured hBTN1A1 ICD [15]": {"biological_target": "T3, denatured hBTN1A1 ICD", "assay": "ELISA clone screen, GenScript"}}}
{"binder": "B1", "values": [{"measurement": "ELISA signal", "setting": "BTN1A1 Peptide 4 [1]", "value": 0.945}, {"measurement": "ELISA signal", "setting": "hBTN1A1 ICD [2]", "value": 1.98}, {"measurement": "ELISA signal", "setting": "denatured hBTN1A1 ICD [3]", "value": 0.111}, {"measurement": "Fold change", "setting": "[4]", "value": 21, "unit": "fold"}, {"measurement": "Fold change", "setting": "[5]", "value": 463, "unit": "fold"}, {"measurement": "Fold change", "setting": "[6]", "value": 59, "unit": "fold"}, {"measurement": "Fold change", "setting": "[7]", "value": 16, "unit": "fold"}, {"measurement": "Fold change", "setting": "[8]", "value": 126, "unit": "fold"}, {"measurement": "Fold change", "setting": "TRIM11 peptide", "value": 7360, "unit": "fold"}, {"measurement": "Fold change", "setting": "BTN1A1 Peptide 4 [9]", "value": 1, "unit": "fold"}, {"measurement": "Fold change", "setting": "[10]", "value": 20, "unit": "fold"}, {"measurement": "Fold change", "setting": "[11]", "value": 160, "unit": "fold"}, {"measurement": "Fold change", "setting": "[12]", "value": 4, "unit": "fold"}, {"measurement": "ELISA signal", "setting": "BTN1A1 Peptide 4 [13]", "value": 0.609}, {"measurement": "ELISA signal", "setting": "hBTN1A1 ICD [14]", "value": 1.6}, {"measurement": "ELISA signal", "setting": "denatured hBTN1A1 ICD [15]", "value": 2.27}]}
